B1: ATP-dependent RNA helicase DDX19B (Homo sapiens), Q9UMR2-1 (parent)
chain: MATDSWALAVDEQEAAAESLSNLHLKEEKIKPDTNGAVVKTNANAEKTDEEEKEDRAAQSLLNKLIRSNLVDNTNQVEVLQRDPNSPLYSVKSFEELRLKPQLLQGVYAMGFNRPSKIQENALPLMLAEPPQNLIAQSQSGTGKTAAFVLAMLSQVEPANKYPQCLCLSPTYELALQTGKVIEQMGKFYPELKLAYAVRGNKLERGQKISEQIVIGTPGTVLDWCSKLKFIDPKKIKVFVLDEADVMIATQGHQDQSIRIQRMLPRNCQMLLFSATFEDSVWKFAQKVVPDPNVIKLKREEETLDTIKQYYVLCSSRDEKFQALCNLYGAITIAQAMIFCHTRKTASWLAAELSKEGHQVALLSGEMMVEQRAAVIERFREGKEKVLVTTNVCARGIDVEQVSVVINFDLPVDKDGNPDNETYLHRIGRTGRFGKRGLAVNMVDSKHSMNILNRIQEHFNKKIERLDTDDLDEIEKIAN

Variants of: B1
Conditions: with NUP214, P35658-1
Sequence of NUP214, P35658-1 (P35658 whole entry): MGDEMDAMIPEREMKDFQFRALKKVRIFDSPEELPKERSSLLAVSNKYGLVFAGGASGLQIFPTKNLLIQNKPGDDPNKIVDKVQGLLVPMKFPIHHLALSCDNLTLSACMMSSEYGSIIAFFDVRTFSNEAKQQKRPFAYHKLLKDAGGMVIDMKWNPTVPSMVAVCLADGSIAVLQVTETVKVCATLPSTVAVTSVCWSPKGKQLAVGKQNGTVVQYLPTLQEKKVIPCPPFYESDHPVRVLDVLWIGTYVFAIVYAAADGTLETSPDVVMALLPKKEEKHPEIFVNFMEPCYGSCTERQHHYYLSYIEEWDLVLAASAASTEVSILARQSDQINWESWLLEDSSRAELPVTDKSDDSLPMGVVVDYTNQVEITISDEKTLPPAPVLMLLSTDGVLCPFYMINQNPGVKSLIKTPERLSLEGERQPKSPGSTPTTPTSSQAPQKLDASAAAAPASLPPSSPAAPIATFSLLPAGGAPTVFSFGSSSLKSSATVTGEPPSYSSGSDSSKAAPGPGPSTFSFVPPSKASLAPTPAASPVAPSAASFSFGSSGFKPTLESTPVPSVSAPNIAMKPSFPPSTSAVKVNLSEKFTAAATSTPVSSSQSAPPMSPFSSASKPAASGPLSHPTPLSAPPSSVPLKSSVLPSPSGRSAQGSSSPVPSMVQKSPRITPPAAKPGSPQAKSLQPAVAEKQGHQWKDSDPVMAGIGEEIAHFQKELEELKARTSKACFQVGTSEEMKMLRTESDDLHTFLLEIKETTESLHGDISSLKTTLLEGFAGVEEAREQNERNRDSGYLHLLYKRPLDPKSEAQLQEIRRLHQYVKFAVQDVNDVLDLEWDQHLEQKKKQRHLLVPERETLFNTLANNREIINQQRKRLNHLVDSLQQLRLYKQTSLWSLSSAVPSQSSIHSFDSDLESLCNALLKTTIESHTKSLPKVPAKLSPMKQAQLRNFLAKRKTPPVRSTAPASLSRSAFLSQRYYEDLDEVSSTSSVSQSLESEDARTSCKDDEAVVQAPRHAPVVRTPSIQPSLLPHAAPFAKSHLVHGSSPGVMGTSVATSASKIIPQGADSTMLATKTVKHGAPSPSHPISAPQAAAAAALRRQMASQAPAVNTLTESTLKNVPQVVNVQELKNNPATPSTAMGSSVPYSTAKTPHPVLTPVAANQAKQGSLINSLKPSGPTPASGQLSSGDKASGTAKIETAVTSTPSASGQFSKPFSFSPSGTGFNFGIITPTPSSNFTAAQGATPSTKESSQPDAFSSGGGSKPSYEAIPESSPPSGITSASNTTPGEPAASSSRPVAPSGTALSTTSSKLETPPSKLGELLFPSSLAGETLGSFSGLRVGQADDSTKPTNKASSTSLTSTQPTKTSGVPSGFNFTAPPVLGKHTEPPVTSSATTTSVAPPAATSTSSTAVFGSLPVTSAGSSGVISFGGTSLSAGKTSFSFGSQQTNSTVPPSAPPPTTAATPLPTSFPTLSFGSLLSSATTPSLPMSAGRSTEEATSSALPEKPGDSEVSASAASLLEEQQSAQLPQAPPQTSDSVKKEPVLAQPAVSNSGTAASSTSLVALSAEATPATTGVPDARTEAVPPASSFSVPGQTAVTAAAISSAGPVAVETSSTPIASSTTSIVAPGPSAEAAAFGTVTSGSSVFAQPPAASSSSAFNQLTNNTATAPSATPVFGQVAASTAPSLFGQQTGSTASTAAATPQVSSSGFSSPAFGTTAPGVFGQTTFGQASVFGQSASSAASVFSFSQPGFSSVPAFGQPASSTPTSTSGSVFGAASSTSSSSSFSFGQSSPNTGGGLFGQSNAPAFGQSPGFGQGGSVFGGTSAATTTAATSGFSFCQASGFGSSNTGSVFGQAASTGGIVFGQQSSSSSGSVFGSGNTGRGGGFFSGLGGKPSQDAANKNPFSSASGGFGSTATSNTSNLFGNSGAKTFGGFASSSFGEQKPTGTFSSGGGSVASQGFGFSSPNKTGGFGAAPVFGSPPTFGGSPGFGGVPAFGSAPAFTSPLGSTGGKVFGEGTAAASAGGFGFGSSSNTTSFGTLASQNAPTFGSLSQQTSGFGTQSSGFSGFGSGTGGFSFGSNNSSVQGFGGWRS
For R259E, the “effect of a mutation on the interaction” value was “disrupting interaction strength”. R259Q was tested, and the “effect of a mutation on the interaction” value was “decreasing interaction”. For R259A, the “effect of a mutation on the interaction” value was “disrupting interaction strength”.
